The target of assay [1] is T1, human β-catenin (Leu218-Leu781) mutant Phe 253 to alanine, Gal-4 activation domain fusion (human, UniProt P35222 218-781).
T1 sequence: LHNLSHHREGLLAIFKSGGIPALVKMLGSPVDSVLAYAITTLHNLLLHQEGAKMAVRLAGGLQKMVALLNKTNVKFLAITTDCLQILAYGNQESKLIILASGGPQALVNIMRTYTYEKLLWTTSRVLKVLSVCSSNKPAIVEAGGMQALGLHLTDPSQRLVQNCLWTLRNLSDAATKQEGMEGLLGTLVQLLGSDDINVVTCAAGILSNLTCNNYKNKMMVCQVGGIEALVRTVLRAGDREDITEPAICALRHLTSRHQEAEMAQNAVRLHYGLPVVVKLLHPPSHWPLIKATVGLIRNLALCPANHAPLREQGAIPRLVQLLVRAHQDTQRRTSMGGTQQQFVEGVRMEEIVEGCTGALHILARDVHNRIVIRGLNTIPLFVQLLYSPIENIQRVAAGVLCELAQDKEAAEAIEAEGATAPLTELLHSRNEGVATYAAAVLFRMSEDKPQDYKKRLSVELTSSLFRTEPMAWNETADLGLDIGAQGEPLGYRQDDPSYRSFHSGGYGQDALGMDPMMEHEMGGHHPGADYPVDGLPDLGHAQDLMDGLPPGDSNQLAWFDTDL
Description: yeast 2-hybrid; - means 60-100% of the wild type interaction.

The target of assay [2] is T2, human β-catenin (Leu218-Leu781) mutant Lys 435 to alanine, Gal-4 activation domain fusion (human, UniProt P35222 218-781).
T2 sequence: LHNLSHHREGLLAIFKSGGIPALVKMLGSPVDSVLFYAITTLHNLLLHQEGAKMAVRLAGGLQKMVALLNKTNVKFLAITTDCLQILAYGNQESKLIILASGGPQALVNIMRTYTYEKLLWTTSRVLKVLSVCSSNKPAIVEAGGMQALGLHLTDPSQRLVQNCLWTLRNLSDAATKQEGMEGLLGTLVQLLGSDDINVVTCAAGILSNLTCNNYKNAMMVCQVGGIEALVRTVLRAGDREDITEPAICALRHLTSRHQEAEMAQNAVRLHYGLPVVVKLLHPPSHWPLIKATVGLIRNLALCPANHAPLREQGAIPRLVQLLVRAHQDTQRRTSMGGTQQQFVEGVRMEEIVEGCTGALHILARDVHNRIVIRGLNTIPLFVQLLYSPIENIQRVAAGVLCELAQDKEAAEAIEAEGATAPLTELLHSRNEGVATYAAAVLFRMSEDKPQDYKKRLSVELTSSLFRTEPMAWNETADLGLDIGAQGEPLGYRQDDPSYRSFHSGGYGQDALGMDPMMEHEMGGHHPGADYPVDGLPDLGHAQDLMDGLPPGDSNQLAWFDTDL
The description is as above.

B1: LEF-1 amino acids 1-99 fused to Lex-A (vector BTM 116) (other, UniProt P0A7C2 1-202, looked up)
chain: MKALTARQQEVFDLIRDHISQTGMPPTRAEIAQRLGFRSPNAAEEHLKALARKGVIEIVSGASRGIRLLQEEEEGLPLVGRVAAGEPLLAQQHIEGHYQVDPSLFKPNADFLLRVSGMSMKDIGIMDGDLLAVHKTQDVRNGQVVVARIDDEVTVKRLKKQGNKVELLPENSEFKPIVVDLRQQSFTIEGLAVGVIRNGDWLMPQLSGGGGGGDPELCATDEMIPFKDEGDPQKEKIFAEISHPEEEGDLADIKSSLVNESEIIPASNGHEVVRQAPSSQEPYHDKAREHPDEGKHPDGGL
notes: Order of the fusion follows the vector; also called LEF-1/TCF-4
Take B1: the binding result in assay [1] and in assay [2] was “binds” each time.
